Measured values reported in patent US6635431.

Columns and labels:
[1] = molecular target: α subunit of rat LSR (product of cDNA LSR-Rn-2097) (rat) (UniProt Q9WU74); assay: flotation of 35S-labelled in vitro translated LSR with 100 µg/ml LDL and 1 mM oleate, against no oleate
[2] = molecular target: β subunit of rat LSR (product of cDNA LSR-Rn-1893) (rat) (UniProt Q9WU74); assay: as above
Chain of β subunit of rat LSR (product of cDNA LSR-Rn-1893) (rat) (Q9WU74 other isoform, or with tags, fused parts or gaps limits assumed): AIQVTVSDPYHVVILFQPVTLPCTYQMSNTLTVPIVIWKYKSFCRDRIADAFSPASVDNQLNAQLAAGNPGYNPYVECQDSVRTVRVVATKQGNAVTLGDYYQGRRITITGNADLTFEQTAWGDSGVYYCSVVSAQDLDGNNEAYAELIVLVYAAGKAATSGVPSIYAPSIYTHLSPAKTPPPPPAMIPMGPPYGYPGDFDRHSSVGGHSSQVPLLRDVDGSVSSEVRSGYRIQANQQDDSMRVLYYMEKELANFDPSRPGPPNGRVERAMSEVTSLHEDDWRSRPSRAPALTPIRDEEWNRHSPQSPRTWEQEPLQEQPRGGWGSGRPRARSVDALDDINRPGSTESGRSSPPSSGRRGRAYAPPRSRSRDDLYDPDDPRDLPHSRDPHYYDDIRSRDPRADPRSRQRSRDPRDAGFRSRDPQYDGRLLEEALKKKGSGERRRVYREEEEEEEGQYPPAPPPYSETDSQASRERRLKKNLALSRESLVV

Chain of α subunit of rat LSR (product of cDNA LSR-Rn-2097) (rat) (Q9WU74 36-593 limits assumed): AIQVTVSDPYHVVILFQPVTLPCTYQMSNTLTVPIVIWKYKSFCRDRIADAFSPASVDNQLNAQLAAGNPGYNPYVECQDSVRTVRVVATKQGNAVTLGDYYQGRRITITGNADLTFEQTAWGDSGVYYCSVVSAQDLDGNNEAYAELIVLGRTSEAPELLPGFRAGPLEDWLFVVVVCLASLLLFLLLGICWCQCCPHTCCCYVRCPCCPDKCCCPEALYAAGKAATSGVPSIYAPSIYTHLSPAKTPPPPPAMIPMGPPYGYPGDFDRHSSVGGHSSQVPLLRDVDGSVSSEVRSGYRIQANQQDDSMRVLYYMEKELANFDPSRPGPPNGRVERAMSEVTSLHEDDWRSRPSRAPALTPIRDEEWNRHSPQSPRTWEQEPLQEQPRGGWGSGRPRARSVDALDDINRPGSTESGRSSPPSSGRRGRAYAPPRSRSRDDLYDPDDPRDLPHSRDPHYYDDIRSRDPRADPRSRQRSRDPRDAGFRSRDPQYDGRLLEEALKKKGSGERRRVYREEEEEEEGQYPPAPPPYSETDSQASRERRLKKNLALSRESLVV

LDL (low-density lipoprotein, 1.025<d<1.055 g/ml) isolated from plasma of volunteers, P04114 28-4563
factor of increase of LDL binding by oleate [1]: 5 fold
factor of increase of LDL binding by oleate [2]: 2 fold
